PMC4176372, “The interplay of primer-template DNA phosphorylation status and single-stranded DNA binding proteins in directing clamp loaders to the appropriate polarity of DNA” (Nucleic Acids Research, 2014)

Legend:
[1] = target: replication protein A (RPA) (UniProt P22336)
[2] = target: replication protein A (RPA) (UniProt P22336); remark: listed apart in the source
[3] = target: T1, Saccharomyces cerevisiae clamp loader replication factor C (RFC) with a full-length Rfc1 subunit (S. cerevisiae, UniProt P38630 1-861; P40348 1-353; P38629 1-340; P40339 1-323; P38251 1-354); assay: stopped-flow fluorescence (PCNA-AF488_2 clamp closing); sequential mixing: 20 nM RFC, 20 nM PCNA-AF488_2 and 0.5 mM ATP incubated 4 s, then mixed with 40 nM 5′DNA pre-bound to 400 nM RPA, ATP and 200 nM unlabeled PCNA; 20°C; 30 mM HEPES pH 7.5, 150 mM NaCl, 10 mM MgCl2, 10% glycerol, 100 mM maltose; conditions: both partners purified
T1 construct: Rfc1 subunit of S. cerevisiae RFC; Rfc2 subunit of S. cerevisiae RFC; Rfc3 subunit of S. cerevisiae RFC; Rfc4 subunit of S. cerevisiae RFC; Rfc5 subunit of S. cerevisiae RFC; Pentamer of Rfc1-5; source: E. coli BL21 (DE3) Rosetta, expressed from a single plasmid, purified (HighTrap SP, HighTrap heparin, MonoQ); copies: 1 + 1 + 1 + 1 + 1

[4] = target: T1, Saccharomyces cerevisiae clamp loader …; assay: stopped-flow fluorescence (PCNA-MDCC release from RFC); PCNA labeled with MDCC on the surface to which RFC binds; fluorescence of the RFC·PCNA-MDCC complex is greater than that of unbound PCNA-MDCC; release followed after mixing with DNA substrates with and without bound SSB/RPA; 20°C; single exponential fit; conditions: both partners purified

replication protein A (RPA), sequence (P22336 whole entry, chain 1 of 3): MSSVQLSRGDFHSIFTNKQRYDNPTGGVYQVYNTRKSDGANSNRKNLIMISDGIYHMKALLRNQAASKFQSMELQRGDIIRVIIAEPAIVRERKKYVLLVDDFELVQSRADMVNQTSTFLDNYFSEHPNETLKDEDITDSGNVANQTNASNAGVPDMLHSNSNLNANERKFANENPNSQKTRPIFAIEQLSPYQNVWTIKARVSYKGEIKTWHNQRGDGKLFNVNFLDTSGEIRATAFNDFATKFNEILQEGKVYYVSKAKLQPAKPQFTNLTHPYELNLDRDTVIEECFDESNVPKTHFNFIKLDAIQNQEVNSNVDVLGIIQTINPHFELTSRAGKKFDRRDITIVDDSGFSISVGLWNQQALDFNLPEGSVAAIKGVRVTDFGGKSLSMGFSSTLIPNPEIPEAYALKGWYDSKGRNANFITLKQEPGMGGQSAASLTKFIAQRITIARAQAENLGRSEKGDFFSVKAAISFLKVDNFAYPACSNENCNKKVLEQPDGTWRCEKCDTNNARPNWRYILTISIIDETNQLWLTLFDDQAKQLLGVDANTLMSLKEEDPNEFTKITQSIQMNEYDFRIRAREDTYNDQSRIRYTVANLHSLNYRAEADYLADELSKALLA
replication protein A (RPA), sequence (P26754 whole entry, chain 2 of 3, further chain): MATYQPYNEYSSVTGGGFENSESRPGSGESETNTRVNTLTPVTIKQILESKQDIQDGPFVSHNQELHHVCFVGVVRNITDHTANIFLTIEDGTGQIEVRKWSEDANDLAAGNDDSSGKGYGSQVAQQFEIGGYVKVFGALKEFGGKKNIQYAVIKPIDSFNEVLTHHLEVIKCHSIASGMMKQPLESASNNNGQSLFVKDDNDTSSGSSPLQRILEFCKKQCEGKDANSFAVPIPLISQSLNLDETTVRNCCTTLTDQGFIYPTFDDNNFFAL
replication protein A (RPA), sequence (P26755 whole entry, chain 3 of 3, further chain): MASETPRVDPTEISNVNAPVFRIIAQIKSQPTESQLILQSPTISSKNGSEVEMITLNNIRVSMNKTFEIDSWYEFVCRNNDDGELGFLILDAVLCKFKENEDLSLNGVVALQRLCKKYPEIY

Saccharomyces cerevisiae clamp loader replication factor C (RFC) with a full-length Rfc1 subunit (from UniProt P38630 1-861; P40348 1-353; P38629 1-340; P40339 1-323; P38251 1-354) (complex)
k obs1 of PCNA-AF488 2 closing by RFC on 3′DNA·RPA [1]: 4.4 s⁻¹ | kobs of PCNA-AF488 2 closing by RFC on phosphorylated 5′DNA·RPA [1]: 0.09 s⁻¹ | k obs1 of PCNA closing by RFC on 3′DNA with the non-cognate SSB substituted for RPA [2]: 4.6 s⁻¹ | rate of PCNA closing by RFC on 5′DNA with the non-cognate SSB substituted for RPA [2]: 0.45 s⁻¹

B1: PCNA-AF488_(2) (S. cerevisiae PCNA, C22/62/81S, I111C, I181C, labeled with AF488) (natural protein, UniProt P15873 1-258, looked up)
chain: MLEAKFEEASLFKRIIDGFKDSVQLVNFQCKEDGIIAQAVDDSRVLLVSLEIGVEAFQEYRSDHPVTLGMDLTSLSKILRSGNNTDTLTLIADNTPDSIILLFEDTKKDRCAEYSLKLMDIDADFLKIEELQYDSTLSLPSSEFSKIVRDLSQLSDSINIMITKETIKFVADGDIGSGSVCIKPFVDMEHPETSIKLEMDQPVDLTFGAKYLLDIIKGSSLSDRVGIRLSSEAPALFQFDLKSGFLQFFLAPKFNDEE
modifications: AF488 on the cysteines introduced at positions 111 and 181
notes: proliferating cell nuclear antigen (PCNA), the S. cerevisiae sliding clamp; also called fluorescent PCNA; source: purified as described previously
binding result [3]: binds

B2: PCNA-MDCC (S. cerevisiae PCNA, C22/62/81S, S43C, labeled with MDCC) (natural protein, UniProt P15873 1-258, looked up)
chain: MLEAKFEEASLFKRIIDGFKDSVQLVNFQCKEDGIIAQAVDDCRVLLVSLEIGVEAFQEYRSDHPVTLGMDLTSLSKILRSGNNTDTLTLIADNTPDSIILLFEDTKKDRIAEYSLKLMDIDADFLKIEELQYDSTLSLPSSEFSKIVRDLSQLSDSINIMITKETIKFVADGDIGSGSVIIKPFVDMEHPETSIKLEMDQPVDLTFGAKYLLDIIKGSSLSDRVGIRLSSEAPALFQFDLKSGFLQFFLAPKFNDEE
modifications: MDCC on the cysteine introduced at position 43
notes: proliferating cell nuclear antigen (PCNA), the S. cerevisiae sliding clamp; source: purified as described previously
binding result [4]: binds
